# Laboratory results as given in publication PMC3923860.
# Tested on: H1-CΔ97 (histone H1o lacking C-terminal domain) (mouse)
# Test: EMSA
# Details: no competitor DNA; EMSA: 50 mM NaCl, 25 mM Tris-HCl pH 7.5, 1 mM EDTA, 1 mM DTT, 100 ug/ml acetylated BSA, 3% glycerol; 30 min on ice; gels 0.5x TBE, 4 C
substance,measurement,value
hemicatenated DNA loops (hcDNA),Kd,35 nM
